Results: patent publication US20250136699A1 (JIANGSU BIOJETAY BIOTECHNOLOGY, published 2025)
Like-named read-outs stand apart in the source and are kept apart here.

T1: Rattus norvegicus FcRn-alpha (rat, UniProt P13599 23-298)
T1 construct: Alpha chain alone; also called rFcRn; rat FcRn; not shown: His tag and Avi tag
T1 sequence: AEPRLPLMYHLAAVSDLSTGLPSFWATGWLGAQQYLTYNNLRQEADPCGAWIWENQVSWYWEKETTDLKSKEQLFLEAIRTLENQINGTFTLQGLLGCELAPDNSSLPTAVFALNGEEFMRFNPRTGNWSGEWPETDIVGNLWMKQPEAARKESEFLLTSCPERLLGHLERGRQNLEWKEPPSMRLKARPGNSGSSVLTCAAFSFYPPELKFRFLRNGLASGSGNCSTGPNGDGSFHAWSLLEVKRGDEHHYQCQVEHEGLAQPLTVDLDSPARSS


How the values were obtained:
human FCGRT [1] = target: T2, human FCGRT (human, UniProt P55899 24-297, biotinylated (Avi tag) in the blocking assays); experiment: blocking ELISA: human IgG coated, biotinylated human FCGRT plus titrated antibody, SA-HRP, OD450; blocked ligand: human IgG
T2 construct: Alpha chain alone, expressed in Expi293 cells with His and Avi tags; also called FCGRT of human FcRn protein; biotinylated human FCGRT; not shown: His tag and Avi tag
T2 sequence (P55899 24-297 limits assumed): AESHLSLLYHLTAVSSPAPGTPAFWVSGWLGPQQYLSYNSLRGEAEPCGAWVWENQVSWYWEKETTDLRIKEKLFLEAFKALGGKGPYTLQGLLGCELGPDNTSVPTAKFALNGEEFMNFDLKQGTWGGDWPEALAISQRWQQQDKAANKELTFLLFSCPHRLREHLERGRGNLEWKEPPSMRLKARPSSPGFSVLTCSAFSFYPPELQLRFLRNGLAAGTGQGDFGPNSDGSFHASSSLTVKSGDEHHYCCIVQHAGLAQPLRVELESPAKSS

human FCGRT [2] = target: T2, human FCGRT; experiment: ELISA: human FCGRT coated, antibody titrated, goat anti-human IgG Fab-HRP, OD450
Procedure: (§1) Measurement of the binding specificity of anti-FcRn antibodies to FCGRT and B2M by EILSA: Briefly, human FCGRT or B2M was coated on a 96-well plate at 4° C. overnight, after removing the coating solution, a blocking buffer containing 1% BSA was added into the plates followed by incubation at room temperature for 1 hour to block unspecific binding. Plates were then washed with wash buffer, and serial dilutions of anti-FcRn antibodies were added to the wells and incubated at room temperature for 1 hour. […] The wells were washed before adding 100 μL/well of TMB and incubated for 5-10 minutes at 37° C. 2M H₂SO₄ was used to stop the reaction. […] The ELISA results (OD450) were analyzed, and the binding curves were generated by Graphpad PRISM.

[3] = target: T3, human FcRn (human FCGRT and B2M) on stably transfected MDCK cells (human, UniProt P55899 24-365; P61769 21-119); experiment: cell-based or functional assay
human B2M [4] = target: T4, human B2M (human, UniProt P61769 21-119, limits assumed); experiment: ELISA: human B2M coated, antibody titrated, OD450
T4 construct: also called beta-2-microglobulin; not shown: His tag and Avi tag

[5] = target: T1, Rattus norvegicus FcRn-alpha; experiment: ELISA: rFcRn coated, antibody titrated, goat anti-human IgG Fab-HRP, OD450
Procedure: (§2) hFcRn binding of purified full-length chimeric antibodies: The hFcRn antigen binding ELISA was performed on the purified full-length chimeric antibodies (reformatted as IgG4). Briefly, plates were coated overnight at 4° C. with 1 μg/mL of hFcRn (cat #CT009-H08H) in PBS. After removing the coating solution, the wells were blocked by adding blocking buffer and incubated at room temperature for 1 hour. Plates were then washed 6 times with wash buffer. Serial dilutions of purified antibodies in PBS were added to individual wells followed by incubation at room temperature for 1 hour. Plates were washed 6 times with wash buffer. […] Plates were incubated at 37° C. for 1 hour, washed 6 times with wash buffer, and developed for 5-10 minutes with 50 L/well of TMB substrate, then quenched with 2M H₂SO₄. […] The ELISA results (OD450) were analyzed, and the binding curves were generated by Graphpad PRISM.
(§3) Analysis of cross-reactivity to FcRn from different species: To examine whether the anti-FcRn antibodies bind to FcRn from different species, antigen binding ELISA assays were performed as described above except that cynoFcRn, mFcRn, or rFcRn was used in the assay instead of hFcRn.

[6] = target: T5, Cynomolgus monkey FcRn-alpha (cynomolgus monkey, UniProt Q8SPV9 24-297, limits assumed); experiment: ELISA: cynoFcRn coated, antibody titrated, goat anti-human IgG Fab-HRP, OD450
T5 construct: The printed entry looks like the full-length precursor (signal peptide, transmembrane and cytoplasmic parts); also called cynoFcRn; not shown: His tag and Avi tag
T5 sequence (Q8SPV9 24-297 limits assumed): as the sequence (P55899 24-297 limits assumed) above, with N39D, E44Q, G99S, S189G, S190N, L217M, S269T counted along it

[7] = target: T6, Human recombinant FCGRT & B2M Heterodimer Protein (hFcRn) (human, UniProt P55899 24-297; P61769 21-119); experiment: ELISA: hFcRn coated (1 ug/mL), antibody (IgG4) titrated, goat anti-human IgG Fab-HRP, OD450
T6 construct: Bought protein; also called human FcRn
Procedure: as §2

[8] = target: human FcRn (human FCGRT and B2M) on stably transfected MDCK cells (human) (UniProt P55899); experiment: cell-based or functional assay
human FCGRT [9] = target: T2, human FCGRT; experiment: ELISA: human FCGRT coated, antibody titrated, goat anti-human IgG Fab-HRP, OD450; remark: listed apart in the source
human FCGRT [10] = target: T2, human FCGRT; experiment: competition ELISA: human IgG coated, biotinylated human FCGRT plus antibody, SA-HRP
human FCGRT [11] = target: T2, human FCGRT; experiment: ELISA: human FCGRT coated, antibody titrated, goat anti-human IgG Fab-HRP, OD450; remark: listed apart in the source
[12] = target: human FcRn (human FCGRT and B2M) on stably transfected MDCK cells (human) (UniProt P55899); experiment: cell-based or functional assay; remark: listed apart in the source
[13] = target: Human recombinant FCGRT & B2M Heterodimer Protein (hFcRn) (human) (UniProt P55899); experiment: ELISA, hFcRn coated at 1 ug/mL, antibody titrated, anti-human IgG Fab-HRP
human FCGRT [14] = target: T2, human FCGRT; experiment: competition ELISA: human IgG coated, biotinylated human FCGRT plus antibody, SA-HRP; remark: listed apart in the source
[15] = target: T6, Human recombinant FCGRT & B2M …; experiment: ELISA on coated hFcRn, IgG4 antibody titrated
Procedure: as §2

[16] = target: T3, human FcRn (human FCGRT and B2M) on …; experiment: cell-based or functional assay; remark: listed apart in the source
[17] = target: T5, Cynomolgus monkey FcRn-alpha; experiment: ELISA on coated cynoFcRn, IgG4 antibody titrated
Procedure: as §2, §3

human B2M [18] = target: T4, human B2M; experiment: ELISA: human B2M coated, antibody titrated, OD450; remark: listed apart in the source
Procedure: as §1

human FCGRT [19] = target: T2, human FCGRT; experiment: competition ELISA: human IgG coated, biotinylated human FCGRT plus antibody, SA-HRP; remark: listed apart in the source
Procedure: After removing the coating solution, the wells were blocked with a blocking buffer containing 1% BSA at room temperature for 1 hour. Plates were then washed with wash buffer. […] After incubation, 100 μL of SA-HRP (1:20,000) was added to each well and incubated for 1 hour at 37° C. The wells were washed before adding 100 μL/well of TMB and incubated for 5-10 minutes at 37° C. 2M H₂SO₄ was used to stop the reaction. […] The ELISA results (OD450) were analyzed, and the binding curves were generated by PRISM.

human FCGRT [20] = target: T2, human FCGRT; experiment: ELISA on coated human FCGRT, IgG4 antibody titrated
Procedure: as §1

[21] = target: T6, Human recombinant FCGRT & B2M …; experiment: SPR, Biacore T200, antibody (IgG4) on CM5 chip, hFcRn in solution, pH 6.0
Procedure: The anti-FcRn antibodies were stabilized on sensor chip CM5. The affinities for hFcRn of antibodies at various concentrations were measured. […] Using the SPR technology, the association and dissociation rates were measured, and binding affinity was determined.

EC50 (read off the curve) [6] | EC50 [15] | IgG Recycle IC50 [16] | EC50 [17] | IC50 (human FCGRT [19]) | EC50 (human FCGRT [20]) | Kd [21] | Binder | binding result (human B2M [18]) | also measured
~6 nM | – | – | – | – | – | – | ZLP37 (antibody, V domains shown, Full-length chimeric antibody with human IgG1 or IgG4 heavy constant and human kappa or lambda light constant domain) VH: EVQLQQSGVELARPGASVKMSCKASGYTFSSYAMQWVKKRPGQGLEWIGYINPGTGYTNYNQKFKDKATLTADKSSSTAYMHLSSLTSEDSAVYFCARGGGLRGAMDYWGQGTSVTVSS VL: DIVLTQSPALMSASPGEKVTMTCSANSSVNYMYWYQQKPGSSPKLWIYSTSNLASGVPARFSGSGSGTSYSLTISSMEAEDAATYYCHQRSSYPWTFGGGTKLEIK | – | IC50 (read off the curve) (human FCGRT [1]): ~40 nM; EC50 (read off the curve) (human FCGRT [2]): ~20 nM; IgG Recycle IC50 [3]: 3.12 nM; binding result (human B2M [4]): no binding (tested: about 700 nM (Log[Ab] about 2.8)); binding result [5]: no binding (tested: about 700 nM (Log[Ab] about 2.8)); EC50 (read off the curve) [7]: ~9 nM
0.2 nM | – | – | – | – | – | – | Rozanolixizumab (antibody, part only; not given: Constant regions, V domains shown, not shown: another chain or arm of the molecule) VH: EVPLVESGGGLVQPGGSLRLSCAVSGFTFSNYGMVWVRQAPGKGLEWVAYIDSDGDNTYYRDSVKGRFTISRDNAKSSLYLQMNSLRAEDTAVYYCTTGIVRPFLYWGQGTLVTVSS VL: DIQMTQSPSSLSASVGDRVTITCKSSQSLVGASGKTYLYWLFQKPGKAPKRLIYLVSTLDSGIPSRFSGSGSGTEFTLTISSLQPEDFATYYCLQGTHFPHTFGQGTKLEIK | – | IgG Recycle IC50 [8]: 11.8 nM; EC50 (read off the curve) (human FCGRT [9]): 0.1 nM; IC50 (human FCGRT [10]): 10.9 nM; EC50 (read off the curve) (human FCGRT [11]): 10 nM; IgG Recycle IC50 [12]: 7.8 nM; EC50 [13]: 1.04 nM; IC50 (human FCGRT [14]): 11.6 nM
– | 6.63 nM | 8.36 nM | 2.06 nM | 5.77 nM | 1.02 nM | 0.609 nM | ZLP1-3-2F (antibody, V domains shown) VH: QVQLQESGPGLVKPSETLSLTCAVSGYSFTSGYSWHWIRQPPGKGLEWIGYIHDSGGTNYNPSLKSRVTISRDTSKNQFSLKLSSVTAADTAVYYCAREENYRYFDVWGQGTLVTVSS VL: EIVLTQSPATLSLSPGERATLSCSASSSVSYMHWFQQKPGQSPRLLIYSTSNLASGIPARFSGSGSGTDFTLTISSLEPEDFAVYYCQQRSSYPPTFGQGTKVEIK | no binding (tested: about 700 nM (Log[Ab] about 2.8)) | –
– | 3.11 nM | 11.9 nM | 2.82 nM | 5.12 nM | 1.22 nM | 0.493 nM | ZLP1-3-2M (antibody, V domains shown) VH: QVQLQESGPGLVKPSETLSLTCTVTGYSFTSGYSWHWIRQPPGKGLEWIGYIHDSGGTNYNPSLKSRVTISRDTSKNQFSLKLSSVTAADTAVYYCAREENYRYFDVWGQGTLVTVSS VL: EIVLTQSPATLSLSPGERATLSCSASSSVSYMHWFQQKPGQSPRLLIYSTSNLASGIPARFSGSGSGTDFTLTISSLEPEDFAVYYCQQRSSYPPTFGQGTKVEIK | no binding (tested: about 700 nM (Log[Ab] about 2.8)) | koff [21]: 0.00184 s⁻¹; kon [21]: 3.73e+06 M⁻¹ s⁻¹
